Values of other authors, collected in patent US20090098130A1, “GLUCAGON-LIKE PROTEIN-1 RECEPTOR (GLP-1R) AGONIST COMPOUNDS” (priority 2007, published 2009).

B1: m38C2 IgG: mouse monoclonal aldolase antibody with a reactive lysine (antibody, listed as Mus musculus, V domains shown)
VH: EVKLVESGGGLVQPGGTMKLSCEISGLTFRNYWMSWVRQSPEKGLEWVAEIRLRSDNYATHYAESVKGKFTISRDDSKSRLYLQMNSLRTEDTGIYYCKTYFYSFSYWGQGTLVTVSA
VL: DVVMTQTPLSLPVRLGDQASISCRSSQSLLHTYGSPYLNWYLQKPGQSPKLLIYKVSNRFSGVPDRFSGSGSGTDFTLRISRVEAEDLGVYFCSQGTHLPYTFGGGTKLEIK
modifications: (1)..(30) FR1; (1)..(23) FR1
B2: h38C2 IgG: humanized aldolase catalytic antibody h38c2 IgG1 (antibody, listed as Homo sapiens, V domains shown)
VH: EVQLVESGGGLVQPGGSLRLSCAASGFTFSNYWMSWVRQSPEKGLEWVSEIRLRSDNYATHYAESVKGRFTISRDNSKNTLYLQMNSLRAEDTGIYYCKTYFYSFSYWGQGTLVTVSS
VL: ELQMTQSPSSLSASVGDRVTITCRSSQSLLHTYGSPYLNWYLQKPGQSPKLLIYKVSNRFSGVPSRFSGSGSGTDFTLTISSLQPEDFAVYFCSQGTHLPYTFGGGTKVEIK
modifications: (1)..(30) FR1; (1)..(23) FR1

Conditions: after incubation with β-diketone

Molecule	enaminone absorbance (λmax=318 nm)
B1	showed the characteristic enaminone absorbance
B2	showed the characteristic enaminone absorbance
